The values below come from the DeepSol protein solubility set.

The data set in a line: soluble on expression in E. coli; label from the status in PepcDB or PDB records.
For the sequence “MVWSATSRTKYSIKKSFFGCSMIELSNVNLHYPVPGHFSHSLQTTISSKIGGVLGSSSAKDKEMKYVHALRDINLKLEDSSRLGIIGHNGAGKTTLLRLLSQVYPPTSGKVTIEGKISALTDFTLGMDPNATGLKNIEFRLVFMGCTFKEAQQAVEEIVAFSELGEFINLPVRTYSTGMFLRLAFAISTHFTPDILILDEVIGAGDETFREKALSRLESLIKKSRMVVLSSHDLNAIKQYCDQAIVMEKGEIVFNGTPQSCIDYYLNSVKK”, the “soluble on expression in E. coli” value was “not soluble”.

Consider “MWAVIRMRTFRRSTRNAVSRMRKPKPRASAKQRSLERHFGSRQPTKNKFLNAIYWGIRRCQYFLCCYDDEVEDELEDASANPFNTQPPGLDQLVQLTGFNRKWIMFMYRNFKQKCSNGRMTDSQWRILFRSIFPQANDSAFIDRLYAAIVKKKQHPQITFEDLILCLWELSEDGKTSEMGNYHINSSARAQFAFQLMDEEGKGRVDEPGFYKYTRCVFALTAVNKPCTDQIIDASTIGLPASSIYRSTSVDDVLKPMSPLIARFSSKRFKELDTDRDGFITVRDIERELEIQKNEAICLKSLKDFSFEDLKNEEDDDDEDDQDTNPLLSESSSFKKDV”, for which the “soluble on expression in E. coli” value is listed as “not soluble”.

Take “MWHGMGDCCCNPLSMGSVKKLFEEQIPGVYVHSLQLGSSITKDIEHGFYANTNELVYMACIKIKNDPELKNGYNAIGFSQGAQFLRAVAQRCPNPPMKNLVSVGGQHQGVFGAPYCIGDNIMCNGVRRLIDLGAYLPFVQKRVVQAQYWHDPNQVEEYKKRSIFLADINNENNNNPTYKRNLLSLKNLVLVKFNQDHMVVPKDSSWFGFYKDGDIDTILPMNETDLYKEDRIGLKKLHESGRIHFMDVDGDHLQIPRSVLVNDIIKKYFM”: the “soluble on expression in E. coli” value was “not soluble”.

As for “MWKRIALFLVVLLLAACGKTIPDAKNWPVEDFTFVDQTGKPFGLRDLKGKVWVADFIFTNCETVCPPMTAHMAKLKQMAKKEGLDVEFVSFSVDPEVDTPEKLAAYAKQFTDDLSNWHLLTGYSPAEISELAQKSFKTIVQKPANDDQVVHGTSFYLVGPDGKVVQTYSGVQDVPYETILEHIKIVQSSQ”, the “soluble on expression in E. coli” value was “not soluble”.

With “MWLPTPLGPLWLEVSPLGVRRLEPALYPRGPEAEGALALRVREAVQAYFAGERPDFLDLPLDYTGLSPARLRLYERVRLVPYGRTVSYGALGRELGLSPRAVGAALRACPFFLLVPAHRVIHADGRLGGFQGQEGLKLWLLRFEGAL”, the “soluble on expression in E. coli” value is “soluble”.

With “MWPAPRRVNLRSLGIAWPSPGGLDTLASNFPSEGCQNMNLYSLLSARAAGGKPVRVGLIGAGKFGSMVLAQAQRIAGFHMVAVADLNVGKARESFDRVGWPKERYDATSCADALKSGKTYVTDDVNELFACGEIECIIEATGHPLAGARHALGAIDHNKHVVMVNVEADVMVGPILAEKARAKGLIYSMAYGDQPALICELVDWARATGFEVVSAGKGMNFEPRYRYSTPDTVWSYFGWTDEEVAKGDFNPKMYNSFTDGTKAAIEMAAVANGTGLDCPDDGLAFPPAGLHDLARVFRPAADGGRMSRSGLVDIAASQEPDGREVFNNIRYGVFVTFKAHNDYARACFKQYGLLTDPSGWYASMWRPFHIIGLETSISVLSAVLRNEPTGCSKEFRGDAVATAKKDMQPGEMLDGEGGYAVWANAIPATRSLDIKALPIGLAHNVKLKRPIKKDQIVSFDDVELVSDLDVVKLRQDMEHQFRPQKDAAA”, the “soluble on expression in E. coli” value is “not soluble”.

On to “MWRLIYSLLFLIPGAAMAGAQVYEPLSASTRTVLHRTISDQAVPMLVTLPGPEAKDWLDSMTKRLEKRISDIEERRAFLITVHYEATRAGLDPELVLSIIQVESNFRKYAVSSAGARGYMQVMPFWVDTIGNPEHNLFHLRVNLRYGCTILRHYLDLEQGDYFRALGRYNGSLGKAGYPNLVFNAWHRHWTYSTASQ”, for which the “soluble on expression in E. coli” value is reported as “not soluble”.

For “MWRLYRKTPKQLRNSVESCFKSVNSRQFSVSSFSAVAKDDKSVLKQQEVLHLLAKDQRFEERFFNQVQQTIRYFASKPNDLKKFFRKEASTDNKESSSSSDKKDSKGNKGEDNNPFNQFPGGWQQIAVSVGILLALYAFMDYQSYREISWKEFYSDFLEAGLVERLEVVDKRWVRIVSSSGKYAGQTCYFNIGSVDSFERSLGAAQHHLQYDADRQIPVLYKSEFNFKREIPNLISVAFPLLFGYYIYRMLKGGGAAGGAGRAGGGGLGGMFGGFGQSTARVINREDIKVKFADVAGCEEAKIEIMEFVNFLKNPQQYKDLGAKIPKGAILTGPPGTGKTLLAKATAGEANVPFITVSGSEFLEMFVGVGPARVRDMFSMARKNSPCILFIDEIDAVGRKRGGKGGMGGHSEQENTLNQLLVEMDGFTTDESSVIVIAATNRVDILDSALLRPGRFDRQIYVPVPDIKGRASIFRVHLGPLRTSLDKTVLSRKLAAHTPGFSGADISNVCNEAALIAARDANHEISNKHFEQAIERVVAGMEKKTQVLQKEEKKTVAYHEAGHAIAGWFLQHADPLLKVSIIPRGKGLGYAQYLPKEQYLYSKDQLLDRMCMTLGGRVAEEIFFGRITTGAQDDLQKVTQMAYSQVVKFGMSEKVGPLSFETPAPGEMAFDKPYSEATAQLIDQEVRDLVMNALRRTRDLLLEKRSDIERVALRLLEKEILNREDMIELVGKRPFVEKNTYEEMVSGTGGLDENVELPKGLENWNKESEKKKKDEEKKKNDE”, the “soluble on expression in E. coli” value was “not soluble”.

As to “MWRVGVYSSLRGYKRLNFCCEMLIAAYPKVGECAREGLMDKEVCINAAKGRFLGLRLPELFGGSDMRLNRSCRRRNMKLAAWCMLIQCDSRGGNHAAEVREIGDITKIAICQQCDFECAGPSANFKVTRLQGLRTLKAANRSESLNVEGCYALQSLLM”, the “soluble on expression in E. coli” value is recorded as “not soluble”.

For “MWVDGMAKVVEVGRICVKTRGREAGRKCVIVDIIDENFVLVTGPKSLTGVRRRRVNIDHIEILDKKVDIQKGASDEEVLKALEEAGLADFMREPVRIARITPFTLLEHHHHHH”, the “soluble on expression in E. coli” value is given as “not soluble”.

Turning to “MWYGLGLAFLGGIFRIFPFDMEHTITRQIFCPWLFAFSMTRKQFQGRKPYNYLASFLLFQCRLKESFHGQLVKPIVSWNLWTHRYHNGCFR”, the “soluble on expression in E. coli” value was “not soluble”.

As for “MYAMNLARYKYCPDIKEKGLSGSPRLILFTSAECHYSMKKAASFLGIGTENVCFVETDGRGKMIPEELEKQVWQARKEGAAPFLVCATSGTTVLGAFDPLDEIADICERHSLWLHVDASWGGSALMSRKHRKLLHGIHRADSVAWNPHKMLMAGIQCCALLVKDKSDLLKKCYSAKASYLFQQDKFYDVSYDTGDKSIQCSRRPDAFKFWMTWKALGTLGLEERVNRALALSRYLVDEIKKREGFKLLMEPEYANICFWYIPPSLREMEEGPEFWAKLNLVAPAIKERMMKKGSLMLGYQPHRGKVNFFRQVVISPQVSREDMDFLLDEIDLLGKDM”, the “soluble on expression in E. coli” value was “soluble”.

As for “MYATSTQKREWTYTPEKLAAMRLEINIKFRQKYESVMQPDELELFVTPEEELRMQRSIEDAALKFADKFRPHIWPSVKWTALAFFKRAFLVWVPSDTSIRMVMMACFYLAMKIDEFYITIEDFVKNMNVGEPRQNAERILKLEPELMKILDYNLTVHCPYRPYEGHLMDMKTRMLLLNFDLESIRRDSMRFFQNALQTDVLLLYPPSQIALAAINFGLHAQGKSDEILREFLRKLIGIEEDSWAHRDARPEDLEKLEKTVTRVNQIMREVDRNFVAVTEQERENHKSQLARIQALIPALDERRKEQWLAGGGVGLMPGELAEQPVDSDDEIN”, the “soluble on expression in E. coli” value is on record as “not soluble”.

Turning to “MYDWFKQMRKESPVYYDGKVWNLFKYEDCKMVLNDHKRFSSNLTGYNDKLEMLRSGKVFFDIPTRYTMLTSDPPLHDELRNLTADAFNPSNLPVDFVREVTVKLLSELDEEFDVIESFAIPLPILVISKMLGINPDVKKVKDWSDLVALRLGRADEIFSIGRKYLELISFSKKELDSRKGKEIVDLTGKIANSNLSELEKEGYFILLMIAGNETTTNLIGNAIEDFTLYNSWDYVREKGALKAVEEALRFSPPVMRTIRVTKEKVKIRDQVIDEGELVRVWIASANRDEEVFKDPDSFIPDRTPNPHLSFGSGIHLCLGAPLARLEARIALEEFAKKFRVKEIVKKEKIDNEVLNGYRKLVVRVERT”, the “soluble on expression in E. coli” value is “soluble”.

As to “MYFPSGSDPFAVGEDLGVWAPADHQRIIAKLTTGLGVLFYHTKAIHLEPLPETMLDDAKASLVPDLSLVDNESSETPIIIEVCKTAGLKGDLRKVIQLIDDGIYGIREGFVYNYKTQQWLRYRFGDGGLTTESSFSEILNLDLNTFL”, the “soluble on expression in E. coli” value is listed as “not soluble”.
